B1: ESBA105 (scFv)
scFv: DIVMTQSPSSLSASVGDRVTLTCTASQSVSNDVVWYQQRPGKAPKLLIYSAFNRYTGVPSRFSGRGYGTDFTLTISSLQPEDVAVYYCQQDYNSPRTFGQGTKLEVKRGGGGSGGGGSGGGGSSGGGSQVQLVQSGAEVKKPGASVKVSCTASGYTFTHYGMNWVRQAPGKGLEWMGWINTYTGEPTYADKFKDRFTFSLETSASTVYMELTSLTSDDTAVYYCARERGDAMDYWGQGTLVTVSS
B2: ESBA105-H_F68A (scFv)
scFv: DIVMTQSPSSLSASVGDRVTLTCTASQSVSNDVVWYQQRPGKAPKLLIYSAFNRYTGVPSRFSGRGYGTDFTLTISSLQPEDVAVYYCQQDYNSPRTFGQGTKLEVKRGGGGSGGGGSGGGGSSGGGSQVQLVQSGAEVKKPGASVKVSCTASGYTFTHYGMNWVRQAPGKGLEWMGWINTYTGEPTYADKFKDRATFSLETSASTVYMELTSLTSDDTAVYYCARERGDAMDYWGQGTLVTVSS
B3: ESBA105-QC15.2 (scFv)
scFv: DIVMTQSPSSLSASVGDRVTLTCTASQSVSNDVVWYQQRPGKAPKLLIYSAFNRYTGVPSRFSGRGYGTDFTLTISSLQPEDVAVYYCQQDYNSPRTFGQGTKLEVKRGGGGSGGGGSGGGGSSGGGSQVQLVQSGAEVKKPGASVKVSCTASGYTFTHYGMNWVRQAPGRGLEWMGWINTYTGEPTYADKFKDRITFSLETSASTVYMELTSLTSDDTAVYYCARERGDAMDYWGQGTLVTVSS

Legend:
[1] = biological target: T1, TNFα (tumour necrosis factor alpha) (UniProt P01375 77-233, limits assumed); assay: cell-based or functional assay
[2] = biological target: T1, TNFα (tumour necrosis factor alpha); assay: cell-based or functional assay; remark: listed apart in the source

T1 sequence (P01375 77-233 limits assumed): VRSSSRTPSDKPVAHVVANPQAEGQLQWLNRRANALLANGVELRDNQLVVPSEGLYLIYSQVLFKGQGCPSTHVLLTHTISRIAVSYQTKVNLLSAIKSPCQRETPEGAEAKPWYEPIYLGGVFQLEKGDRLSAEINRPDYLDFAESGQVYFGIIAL

Row | Binder | Relative potency: EC50X/EC50ESBA105, KYM-1 cells [1] [ratio EC50X/EC50ESBA105] | Relative potency: EC50X/EC50ESBA105, L929 cells [1] [ratio EC50X/EC50ESBA105] | EC50 (read off the curve), L929 assay, ESBA105 stored 8 weeks at 37° C. (triangles, dashed line) [2] [ng/mL]
1 | B1 | 1 | 1 | ~10
2 | B2 | – | 1.14 | –
3 | B3 | 1.5 | 1.37 | –

Source: patent publication US8936785 (ESBATECH AN ALCON BIOMEDICAL RESEARCH UNIT, dated 2015)
